Source: US20100261218A1

T1: Synechocystis sp. PCC6803 fatty acid synthesis acyl carrier protein (SACP), P20804
T1 chain: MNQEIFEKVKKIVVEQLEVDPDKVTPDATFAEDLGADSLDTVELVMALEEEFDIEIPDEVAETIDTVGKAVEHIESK

B1: Synechocystis sp. PCC6803 phosphopantetheinyl transferase (Sppt) (protein)
chain: MLPQPQIWLCPTDRPLIPGYQALLSSEEMARGERYQRPQDKQRFLTMRLALRILLARQLDCLPQQLQFTYGPQGKPELVDRERRSPWFNVAHSGNYGLIGLSTEGEIGVDLQIMLPKPHYLKLAKRFFAPQEVQQLESLEGEKRTKLFYQLWTAKEAFLKATGKGISGGLNQVIPDENLAKYQYLPDSGDTNHWRLSSQPLLADQGSNDNYWMAIAWCTNEVNQVESNYLPNIQPFQWPRNLDSLP
B2: N. sp. heterocyst carrier protein synthase (NhcS), phosphopantetheinyl transferase from Nodularia spumigena NSOR10 (protein)
chain: MTALNHLWLPVPTNLTLLPNDVHIWRIHLDVPEAQQQNLLATLSGDELTRANRFHFQEHRQRFIAGRGILRSILGSYLGIEPQRVLFDYQERGKPILADSLAKSGLWFNLSHSQGLALCAVNYHNRIGIDLEYIRRMSDVEALAKRFFLPREYDVVRSLSDHQQQEIFFRYWTCKEAYLKATGEGLAQLEQVEVLLNPTEPAQLQTSESWSLFELRAAEDYFAAVVVEGSGCNLQCWQY

Legend:
[1] = biological target: Bacillus brevis ATCC8185 NRPS peptidyl carrier protein involved in tyrocidine biosynthesis (TycPCP)
[2] = biological target: T1, Synechocystis sp. PCC6803 fatty acid …
[3] = biological target: N. punctiforme ATCC29133 PKS aryl carrier protein (ArCP) from HetM of glycolipid synthesis (NpArCP)
[4] = biological target: N. punctiforme ATCC29133 PKS acyl carrier protein of nostopeptolide biosynthesis (NpACP)
[5] = biological target: Nostoc punctiforme NRPS peptidyl carrier protein (Nppcp), C-terminal NosA PCP of the putative nostopeptolide cluster

Protein	percent of carrier protein phosphopantetheinylated (30 min in vitro assay, ESI-MS) [1]	phosphopantetheinylation of the carrier protein (10 min in vitro assay, ESI-MS, +340 Da) [2]	phosphopantetheinylation of the carrier protein (30 min in vitro assay, ESI-MS) [3]	phosphopantetheinylation of the carrier protein (30 min in vitro assay, ESI-MS) [4]	pantetheinylation of the carrier protein (30 min in vitro assay, ESI-MS) [5]	pantetheinylation of the carrier protein (30 min in vitro assay, ESI-MS) [3]
B1	approximately 54% of the P. aeruginosa PAO1 NRPS TycPCP was phosphopantetheinylated by Sppt	After in vitro incubation with Sppt, SACP showed an increased abundance of phosphopantetheinylated carrier protein	Sppt was unable to phosphopantetheinylate the N. punctiforme ATCC29133 NpArCP as shown by mass spectrometry	Phosphopantetheinylated NpACP was not reproducibly detected after incubation with Sppt	–	–
B2	–	–	–	–	Nppcp was pantetheinylated	The conversion of the apo-ArCP (15.75 kDa) to the holo-ArCP (16.05 kDa) is seen
